Legend:
[1] = system: ATM-L TALEN L3-2 (in cells) A252T,L338S,Q505K,Q745P (full TALE construct numbering) (synthetic construct); test: cell_activity; conditions: U2OS
[2] = system: ATM-L TALEN L3-1 (in cells) A252T,Q505K,Q745P (full TALE construct numbering) (synthetic construct); test: cell_activity; conditions: U2OS
[3] = system: canonical ATM-R TALEN (synthetic construct); test: cleavage_in_vitro; conditions: 12 nM, 90 min, paired with canonical ATM-L
[4] = system: ATM-L TALEN L1-2 (A252T) A252T (full TALE construct numbering) (synthetic construct); test: cleavage_in_vitro; conditions: canonical 6.3% in same experiment

Sequence	activity [1] [% indels]	activity [2] [% indels]	other results
TAGATTGAAATGCTGTTT (double strand) [OffA23 left half-site]	< 0.001	< 0.001	–
TGAATAGGAAATATATTT (double strand) [OffA1 left half-site]	0.002	< 0.001	–
TGAATTGAGAGAAGCATT (double strand) [OffA11 left half-site]	–	–	activity ([1]; not significant, HEK293 <0.001%): 0.002 % indels; activity ([2]; control 0.001%, not significant): 0.002 % indels
TTTATTTTACTGTCTTTA (double strand) [ATM right half-site on-target (sense strand)]	–	–	activity [3]: 31.5 % cleavage
TGAATTGGGATGCTGTTT (double strand) [ATM left half-site on-target]	–	7.04	activity ([1]; HEK293 23.26%): 7.97 % indels
GGAAATGGGATACTGAGT (double strand) [OffA17 left half-site]	–	< 0.001	activity [4]: 0.3 % cleavage; activity ([1]; HEK293 0.025%): < 0.001 % indels

Source: patent US20240200044
